Measurements taken from US20120183475A1.

Key:
[1] = molecular target: Human P-selectin (CD62P) on human platelets in whole blood (human) (UniProt P16109); experiment: flow cytometry, human whole blood, non-activated platelets
[2] = molecular target: Human P-selectin (CD62P) on human platelets in whole blood (human) (UniProt P16109); experiment: flow cytometry, human whole blood, platelets activated with 2.5 uM ADP
[3] = molecular target: Human P-selectin (CD62P) on human platelets in whole blood (human) (UniProt P16109); experiment: flow cytometry, human whole blood, platelets activated with 200 uM TRAP

Sequence of UniProt P16109 (P16109 42-830): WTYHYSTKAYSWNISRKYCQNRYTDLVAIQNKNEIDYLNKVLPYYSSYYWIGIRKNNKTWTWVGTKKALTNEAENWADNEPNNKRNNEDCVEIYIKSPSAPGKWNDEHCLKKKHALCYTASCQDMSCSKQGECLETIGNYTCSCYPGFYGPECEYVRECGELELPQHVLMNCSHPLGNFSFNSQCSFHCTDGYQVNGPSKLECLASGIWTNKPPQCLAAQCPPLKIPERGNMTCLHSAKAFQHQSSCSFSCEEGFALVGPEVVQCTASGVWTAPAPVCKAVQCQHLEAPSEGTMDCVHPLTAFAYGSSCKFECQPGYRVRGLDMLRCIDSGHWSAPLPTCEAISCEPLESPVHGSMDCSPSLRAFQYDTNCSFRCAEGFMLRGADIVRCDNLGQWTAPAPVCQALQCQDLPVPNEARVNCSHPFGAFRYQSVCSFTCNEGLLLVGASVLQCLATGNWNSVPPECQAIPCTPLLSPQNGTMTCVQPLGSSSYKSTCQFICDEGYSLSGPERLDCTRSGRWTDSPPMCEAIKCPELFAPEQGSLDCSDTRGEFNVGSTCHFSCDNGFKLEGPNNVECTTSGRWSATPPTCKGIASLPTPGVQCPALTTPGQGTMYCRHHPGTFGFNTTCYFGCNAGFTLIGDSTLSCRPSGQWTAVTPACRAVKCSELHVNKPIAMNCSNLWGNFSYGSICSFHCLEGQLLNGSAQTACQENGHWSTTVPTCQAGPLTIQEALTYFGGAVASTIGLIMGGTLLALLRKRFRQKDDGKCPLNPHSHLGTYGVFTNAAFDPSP

positivity (% of platelets) [1]: 0.4%
positivity (% of platelets) [2]: 73.4%
positivity (% of platelets) [3]: 97.8%
Substance: PC5-labeled antihuman P-selectin (CD62P, AK-4 clone) (antibody)
